Measurements reported in patent publication US20260217813A1 (published 2026).

Biological target: T1, IL-12 (Human IL12 (His Tag)), Sino Biological Cat. No. CT-050-H08H-20 (human, UniProt P29460 23-328; P29459 23-219)
T1 construct: Bought His-tagged p35/p40 heterodimer
T1 sequence (looked up) 1: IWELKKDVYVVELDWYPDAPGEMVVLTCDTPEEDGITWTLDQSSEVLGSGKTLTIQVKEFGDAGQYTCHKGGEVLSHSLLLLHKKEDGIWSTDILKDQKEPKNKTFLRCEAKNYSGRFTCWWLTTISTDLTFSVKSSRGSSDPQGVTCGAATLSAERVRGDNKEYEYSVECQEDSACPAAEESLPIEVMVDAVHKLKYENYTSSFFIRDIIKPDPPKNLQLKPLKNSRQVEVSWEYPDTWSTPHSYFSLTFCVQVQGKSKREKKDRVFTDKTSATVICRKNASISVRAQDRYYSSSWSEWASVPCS
T1 sequence (looked up) 2: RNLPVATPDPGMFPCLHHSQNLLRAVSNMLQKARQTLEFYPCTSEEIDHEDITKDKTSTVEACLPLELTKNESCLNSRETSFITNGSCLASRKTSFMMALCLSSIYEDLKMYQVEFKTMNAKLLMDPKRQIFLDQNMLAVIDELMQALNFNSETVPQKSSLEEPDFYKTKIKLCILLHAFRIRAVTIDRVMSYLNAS
Experiment: FACS competition, IL12-His (40 nM mixed 1:1) on 293T-IL-12RB1&IL-23R cells
Description: 200 μL of 1% PBSA was added into each sample, and the mixture was centrifuged at 1200 rpm for 5 min to discard the supernatant. According to experiment design, correspondingly diluted antibody (highest final concentration of 60 μg/mL, 3-fold dilution, 8 concentrations in total) and IL12-His (Sino Biological, Cat. No.: CT-050-H08H-20) (40 nM) were mixed at a ratio of 1:1, and a blank control was set. The mixture of antibody and IL12 was incubated on ice for 30 min and then added to the cell precipitate at 100 μL/sample. The resulting mixture was well mixed and incubated on ice for 60 min. 200 μL of 1% PBSA was added, and the mixture was centrifuged at 1200 rpm for 5 min to discard the supernatant, and then washed twice. THETM His tag antibody (FITC) (Genscript, Cat. No.: A01620) was diluted at a ratio of 1:500 and added to each tube at 100 μL. The mixture was well mixed and incubated on ice for 40 min in the absence of light. 200 μL of 1% PBSA was added, and the mixture was centrifuged at 1200 rpm for 5 min to discard the supernatant, and then washed twice. 1% PBSA was added at 200 μL/tube, and the cells were resuspended and transferred to a flow cytometry tube for testing.

B1: H8L15 (antibody, human IgG1, kappa, V domains shown)
VH: EVQLVQSGAEVKKPGESLKISCQSSGYTFTSYWIGWVRQMPGQGLEWIGIMSPVDSDIRYNPMFRGQVTMSVDKSSSTAYLQWSSLKASDTAMYYCARRRPGQGYFDFWGQGTMVTVSS
VL: EIVLTQSPATLSASPGERATISCRASQSVGTWVAWYQQKPGQAPRSLIYAASNLQSGIPARFSGSGSGTDFTLTISSLEPEDFAVYYCQQYNIYPYTFGQGTRLEIKR
notes: IgG1 (P01857) / kappa (P01834) constant regions
B1 gave an EC50 of 1.46 µg/mL.
